Source: the RNAGym collection of RNA variant scans (doi:10.1073/pnas.2313332121)
Variants at the floor of the assay were thinned out.

B1: TPR 5TU (parent)
chain: GGAUCUUCUCGAUCUAACAAAAAAGACAAAUCUGCCACAAAGCUUGAGAGCAUCUUCGGAUGCAGAGGCGGCAGCCUUCGGUGGCGCGAUAGCGCCAACGUUCUCAACUAUGACACGCAAAACGCGUGCUCCGUUGAAUGGAGUUUAUCAUG

Variants of: B1
Assay: polymerase ribozyme fitness, log enrichment relative to wild type (log ratio); higher = more active; in vitro selection for triplet polymerase activity
How it was run: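 To select mutant libraries of each subunit of a heterodimeric triplet polymerase ribozyme, built by PCR and transcribed, each was annealed with a biotinylated primer, partner subunit and triplets, then incubated frozen at −7 °C. Extended constructs were gel-excised, captured on streptavidin beads and amplified by RT-PCR, in one round carried out in triplicate. Illumina sequencing of input and output libraries kept genotypes with ≥10 input reads and ≥1 read per output. Fitness is the base-2 logarithm of genotype enrichment relative to wild-type enrichment, from inverse-variance-weighted replicate averages.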

Variant | polymerase ribozyme fitness (log ratio)
C43U C54A C79U A91U A142U G143A | ≤ -4.2
G42C U127G A150G | ≤ -4.2
C43U A119G | ≤ -4.2
A41G U55A C57G | 0.000485
A41U C99A A106U C118A A119G U134C | ≤ -4.2
G42A G81U A91C G92U C95G A107C C108A C114G G141A | ≤ -4.2
G42A G48A U53A C76A C93G | ≤ -4.2
C43G G83A | ≤ -4.2
G42A G46U U82A A121U | -4.16
G42U A52C A66G C76A U90G C95A A106C C108G | ≤ -4.2
G42A G80C G86C | ≤ -4.2
G42U C76A C93U C96U U145C | ≤ -4.2
G42A G88A C96A C118G G126U | ≤ -4.2
G42U G62U C63A C69U C99A C103G C108A | ≤ -4.2
A41U G70A | -3.15
C43G C85U C99U A120C G128U A147U | ≤ -4.2
G42U U55G G59A G88U C96G A98G | ≤ -4.2
C43U C51A G86U G126A A137C | ≤ -4.2
G42A G59A G80A | ≤ -4.2
G42C G84A A122U | ≤ -4.2
G42A C76U G81U G83C A110U C114G | ≤ -4.2

Variant | polymerase ribozyme fitness (log ratio)
A41U G88C | ≤ -4.2
A41U C85U A122G | -1.39
G42U G68C G94U | ≤ -4.2
C43U C87U | -3.73
A41U C54A G92A | ≤ -4.2
A41U G42A U44C A64U C76G C96U A107U | ≤ -4.2
A41U A52G C96A | -3.24
G42A G50C | ≤ -4.2
G42C G80C G86U C118U A121G A150G | ≤ -4.2
A41U C72G C76U A119G U134G A142U | ≤ -4.2
G42C U56A C85U C95A U127C G143U | ≤ -4.2
C43U C85G G88A C93G A97U C125A C132G G140C | ≤ -4.2
G42A C69G C72G C96U G143A | ≤ -4.2
G42C C75G | ≤ -4.2
A41U | -0.621
A41U A52U C57U U61C | ≤ -4.2
A41U A49U | -2.28
G42A U55A C85U A97U G140C | ≤ -4.2
C43A U44G U45A | ≤ -4.2
A41U G92U G141A | -1.22
A41U A89G U90C G94A A121C | ≤ -4.2

Variant | polymerase ribozyme fitness (log ratio)
A41U G81A | -0.718
G42C U61A A64G A107G U130C | ≤ -4.2
C43A | -4
C43G | -4.17
C43U | -4.01
G42U C63U G68A C95U G112U U146G | ≤ -4.2
A41U U56A G84U C118A C125G | -4.09
A41U G86A A89U C114U | -4.16
A41U C54A C93A G126U | ≤ -4.2
C43U A52C G83U A91U | ≤ -4.2
G42C C72U G92C C96U | ≤ -4.2
G42C U56G G68U U78A C93U A142C | ≤ -4.2
A41G U53A G59C A98G U102C G133A | ≤ -4.2
C43U C51U U53G A73G C96G G126U | ≤ -4.2
G42U C93A C96U | ≤ -4.2
G42A A49C G62C U77C G88A C96A C132G | ≤ -4.2
G42C G133C G143C | ≤ -4.2
A41U U55A A66G C93U A110G G140A | ≤ -4.2
C43G C54A C93U A107G | ≤ -4.2
A41U G58A A60U C93G | ≤ -4.2
C43G A47C U104G | ≤ -4.2

Variant | polymerase ribozyme fitness (log ratio)
A41U U77A | ≤ -4.2
C43G A52U A142C U144A | ≤ -4.2
G42A C54G C95U A107U C118G | ≤ -4.2
A41U C57G C123A | -2.99
G42C G59A C93G A106C | ≤ -4.2
C43G A97U C123U C125A U148G | ≤ -4.2
A41U C123G | -1.42
C43U C54U G140U | ≤ -4.2
A41U C99A A107U G117A A122U G128A | ≤ -4.2
G42C U45A C79A G86A U104C A107C | ≤ -4.2
G42A G62A G65U G136U | ≤ -4.2
G42A G71U G126A A138C | ≤ -4.2
G42U C57G G58A C85G | ≤ -4.2
A41U G86U | -1.92
A41U C51U C85A A115U A142U | ≤ -4.2
A41U A52C C76U | -3.25
G42C G86U A150U | ≤ -4.2
C43A G92C | ≤ -4.2
G42U A98G U139C | ≤ -4.2
G42A A52C G94U A97G U144A | ≤ -4.2
C43G U53A G81U U82C | ≤ -4.2
